Data as given in publication PMC2712996.

Molecular target: Rabbit skeletal muscle actin (F-actin) (rabbit) (UniProt P68135)
Experiment: co-sedimentation

percent pelleted with F-actin: 41%
Substance: GST-Cno (aa 1,560–2,051) (domain or fragment)
